System: Escherichia coli TOP10
Assay: shrunken log2 fold change of peptide-encoding DNA abundance (4.5 h post-induction vs induction); higher = less antimicrobial activity (less host growth inhibition)
Conditions: time post-induction: 4.5 h; library: site-saturation at positions 5, 18, 19, 20
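Further: peptides expressed intracellularly from a pBAD plasmid library in pooled LB shake-flask culture, induced with 0.3% L-arabinose, DNA abundance read by NGS, three biological replicates, DESeq2 with apeglm shrinkage.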

Sequence | shrunken log2 fold change
RRIRKRPPRLPRPRPRPKWLPRP | -0.0433
RRIRRRPPRLPRPRPRPHLEPRP | 0.0779
RRIRMRPPRLPRPRPRPFCEPRP | 0.148
RRIRCRPPRLPRPRPRPFEFPRP | 0.0705
RRIRLRPPRLPRPRPRPTWEPRP | 0.0313
RRIRQRPPRLPRPRPRPCESPRP | -0.0107
RRIRARPPRLPRPRPRPSPGPRP | 0.284
RRIRGRPPRLPRPRPRPWFYPRP | -0.4
RRIRVRPPRLPRPRPRPWETPRP | 0.0394
RRIRLRPPRLPRPRPRPLLHPRP | -0.0703
RRIRLRPPRLPRPRPRPHFQPRP | -0.131
RRIRPRPPRLPRPRPRPEQWPRP | 0.0326
RRIRDRPPRLPRPRPRPYFLPRP | -0.49
RRIRMRPPRLPRPRPRPSLRPRP | 0.626
RRIRNRPPRLPRPRPRPWDPPRP | -0.00879
RRIRERPPRLPRPRPRPTTRPRP | 0.0679
RRIRPRPPRLPRPRPRPPIEPRP | -0.0597
RRIRKRPPRLPRPRPRPIGQPRP | 0.0684
RRIRSRPPRLPRPRPRPTYAPRP | 0.0244
RRIRYRPPRLPRPRPRPEKRPRP | 0.00709

Sequence | shrunken log2 fold change
RRIRSRPPRLPRPRPRPSCGPRP | -0.0515
RRIRVRPPRLPRPRPRPVQRPRP | 0.167
RRIRARPPRLPRPRPRPTGCPRP | 0.458
RRIRCRPPRLPRPRPRPDNDPRP | -0.124
RRIRWRPPRLPRPRPRPMRHPRP | 0.228
RRIRVRPPRLPRPRPRPRNLPRP | 0.107
RRIRLRPPRLPRPRPRPQDLPRP | -0.0513
RRIRGRPPRLPRPRPRPLERPRP | 0.577
RRIRPRPPRLPRPRPRPKILPRP | 0.0456
RRIRWRPPRLPRPRPRPVVQPRP | -0.131
RRIRIRPPRLPRPRPRPYFYPRP | -0.469
RRIRHRPPRLPRPRPRPQKHPRP | -0.992
RRIRKRPPRLPRPRPRPEQKPRP | 0.125
RRIRYRPPRLPRPRPRPNWVPRP | -0.443
RRIRARPPRLPRPRPRPAQLPRP | 0.324
RRIRARPPRLPRPRPRPNYIPRP | -0.414
RRIRQRPPRLPRPRPRPPGSPRP | 0.111
RRIRDRPPRLPRPRPRPFIDPRP | 0.168
RRIRKRPPRLPRPRPRPATQPRP | 0.958
RRIRPRPPRLPRPRPRPWCHPRP | -0.563

Sequence | shrunken log2 fold change
RRIRPRPPRLPRPRPRPDSTPRP | -0.679
RRIRPRPPRLPRPRPRPLLPPRP | -0.0532
RRIRQRPPRLPRPRPRPELKPRP | 0.0791
RRIRQRPPRLPRPRPRPEVWPRP | 0.552
RRIRERPPRLPRPRPRPPIHPRP | -0.502
RRIRWRPPRLPRPRPRPEYSPRP | 0.0675
RRIRWRPPRLPRPRPRPQTHPRP | 1
RRIRERPPRLPRPRPRPIPGPRP | -0.124
RRIRFRPPRLPRPRPRPIGWPRP | -0.0252
RRIRPRPPRLPRPRPRPDQFPRP | -0.0233
RRIRERPPRLPRPRPRPRLDPRP | 0.0479
RRIRLRPPRLPRPRPRPYVKPRP | -0.182
RRIRDRPPRLPRPRPRPGLAPRP | 0.565
RRIRARPPRLPRPRPRPWDTPRP | 0.0787
RRIRWRPPRLPRPRPRPWRGPRP | 0.389
RRIRMRPPRLPRPRPRPEMKPRP | 2.5
RRIRIRPPRLPRPRPRPYESPRP | -0.0135
RRIRNRPPRLPRPRPRPVWPPRP | 0.199
RRIRKRPPRLPRPRPRPGNLPRP | 0.0368
RRIRIRPPRLPRPRPRPPHYPRP | -0.707

— the supplement of paper PMC9112550, “Optimization of the antimicrobial peptide Bac7 by deep mutational scanning” (BMC Biology, 2022)
